{
  "source": "patent US8106168B2",
  "about": "“Metalloproteinase binding proteins” (Dyax Corp., priority 2005, dated 2012)",
  "molecules": {"B1": {"name": "M0038-F08: human antibody (Fab, IgG) that binds and inhibits MMP-14; HC SEQ ID NO: 158, LC SEQ ID NO: 159 (antibody, V domains shown)", "VH": "EVQLLESGGGLVQPGGSLRLSCAASGFTFSRYKMWWVRQAPGKGLEWVSGIRPSGGLTRYADSVKGRFTISRDNSKNTLYLQMNSLRAEDTAVYYCARRGDYVGGFDYWGQGTLVTVSS", "VL": "QDIQMTQSPGTLSLSPGERATLSCRASQSVSSSYLAWYQQKPGQAPRLLIYGASSRATGIPDRFSGSGSGTDFTLTISRLEPEDFAVYYCQHYGGSQAFGGGTKVEIK", "modifications": "Synthetically generated peptide"}},
  "key": {"[1]": {"target": "T1, MMP-16 (Homo sapiens, UniProt P51512)", "T1 sequence (P51512 120-607)": "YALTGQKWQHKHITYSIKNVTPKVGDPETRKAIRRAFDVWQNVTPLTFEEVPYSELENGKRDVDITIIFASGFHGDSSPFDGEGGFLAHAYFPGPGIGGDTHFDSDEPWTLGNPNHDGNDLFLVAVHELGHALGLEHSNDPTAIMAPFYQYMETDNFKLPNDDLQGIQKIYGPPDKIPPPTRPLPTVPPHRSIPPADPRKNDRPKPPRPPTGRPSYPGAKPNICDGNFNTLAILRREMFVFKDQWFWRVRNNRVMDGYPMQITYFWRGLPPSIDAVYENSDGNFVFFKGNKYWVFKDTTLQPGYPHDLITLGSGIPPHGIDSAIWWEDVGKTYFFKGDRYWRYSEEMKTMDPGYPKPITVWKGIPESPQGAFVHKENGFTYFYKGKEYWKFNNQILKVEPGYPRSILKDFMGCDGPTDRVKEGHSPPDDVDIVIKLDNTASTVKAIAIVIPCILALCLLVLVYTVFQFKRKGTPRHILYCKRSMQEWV", "experiment": "Cross-reactivity of Fabs with MMP-16 (Example 9)", "assay_type": "biochemical", "set-up": "key: X: Do not inhibit MMP-16 or MMP-24 at [I] = 100 nM level; Y: partially inhibit at [I] = 100 nM level", "settings": "Fab, 100 nM final inhibitor concentration, 5 nM MMP-16", "protocol": "(§1) For the studies summarized in Table 15, 1 μM of anti-MMP-14 Fab/IgG (100 nM final inhibitor concentration) were incubated with 5 nM of MMP-16 or 5 nM of MMP-24 for 30 minutes at 30° C., 10 μM of substrate was added, and the MMP-16 activity was measured."}, "[2]": {"target": "T2, MMP-14 (Homo sapiens, UniProt P50281)", "experiment": "Selection and phage ELISA screening of anti-MMP-14 Fabs", "assay_type": "binding", "settings": "Fab from FAB310 phage display library", "outline": "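The FAB310 phage library was panned on biotinylated MMP-14, alone or complexed with bead-bound TIMP-2, at 500 nM and then 100 nM over three rounds. Phage was eluted with 2.5 μM TIMP-2, then 100 mM TEA. For ELISA, 95 clones per round were screened against 1 μg/ml biotinylated MMP-14 captured on streptavidin in TRIS/5 mM CaCl2, pH 7.5.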"}, "[3]": {"target": "T2, MMP-14", "experiment": "IC50 for MMP-14 inhibition by Fabs and IgGs", "assay_type": "biochemical", "settings": "Fab", "protocol": "MMP-14 binding proteins can be characterized in assays that measure their modulatory activity toward MMP-14 or fragments thereof in vitro or in vivo. For example, MMP-14 can be combined with a substrate such as Mca-Pro-Leu-Ala-Cys(Mob)-Trp-Ala-Arg-Dap(Dnp)-NH2 under assay conditions permitting cleavage by MMP-14. The assay is performed in the absence of the MMP-14 binding protein, and in the presence of increasing concentrations of the MMP-14 binding protein. The concentration of binding protein at which 50% of the MMP-14 activity (e.g., binding to the substrate) is inhibited is the IC50 value (Inhibitory Concentration 50%) or EC50 (Effective Concentration 50%) value for that binding protein."}, "[4]": {"target": "T1, MMP-16", "experiment": "Cross-reactivity of Fabs and IgGs with MMP-16 (Example 8)", "assay_type": "biochemical", "set-up": "key to MMP-16 (cross-reactivity, class symbol): X: Does not inhibit MMP-16 at [I] = 100 nM level", "settings": "5 nM MMP16, 30 minutes at 30° C., 10 μM substrate", "protocol": "For the studies summarized in Tables 13 and 14, 100 nM anti-MMP-14 Fab/IgG were incubated with 5 nM MMP16 for 30 minutes at 30° C., 10 μM of substrate was added, and the MMP-16 activity was measured."}, "[5]": {"target": "MMP-24 (Homo sapiens, UniProt Q9Y5R2)", "sequence (Q9Y5R2 156-645)": "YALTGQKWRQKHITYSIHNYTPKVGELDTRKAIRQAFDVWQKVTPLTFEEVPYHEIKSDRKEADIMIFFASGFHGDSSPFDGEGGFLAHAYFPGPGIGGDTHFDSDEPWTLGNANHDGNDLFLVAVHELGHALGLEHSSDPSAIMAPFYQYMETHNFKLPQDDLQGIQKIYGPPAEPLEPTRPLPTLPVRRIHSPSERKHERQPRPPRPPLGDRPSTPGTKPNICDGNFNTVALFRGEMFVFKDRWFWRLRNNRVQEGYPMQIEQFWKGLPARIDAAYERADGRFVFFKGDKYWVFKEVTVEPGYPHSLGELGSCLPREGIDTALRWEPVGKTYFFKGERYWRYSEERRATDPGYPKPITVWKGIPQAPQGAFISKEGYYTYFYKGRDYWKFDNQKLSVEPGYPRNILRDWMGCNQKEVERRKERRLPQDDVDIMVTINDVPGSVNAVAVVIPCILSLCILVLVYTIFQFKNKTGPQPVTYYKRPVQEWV", "experiment": "Cross-reactivity of Fabs with MMP-24 (Example 9)", "assay_type": "biochemical", "set-up": "key to MMP-24 (cross-reactivity, class symbol): X: Do not inhibit MMP-16 or MMP-24 at [I] = 100 nM level; Y: partially inhibit at [I] = 100 nM level", "settings": "Fab, 100 nM final inhibitor concentration; 5 nM MMP-24", "protocol": "as §1"}, "[6]": {"system": "Tumor Cells Expressing MMP-14 (HT-1080, LNCaP, MDA-MB-231, PC3)", "experiment": "Binding of IgGs to tumor cells, immunocytochemistry and flow cytometry", "assay_type": "cell-based, human", "settings": "ICC versus flow cytometry", "protocol": "The ability of twelve biotinylated-MMP-14 binding IgGs to bind to tumor cells expressing MMP-14 was evaluated using both immunocytochemistry (ICC) and flow cytometry. The cell lines tested were HT-1080 (a human fibrosarcoma cell line), LNCaP (human, prostate, carcinoma), MDA-MB-231 (human, breast, adenocarcinoma), or PC3 (Human prostatic cancer cells) cells. MMP-14 is expressed on HT-1080 cells (Cancer Res. (2005) 65(23):10959-69.). MMP-14 is expressed on PC-3 cells (Oncol Rep. (2006) 15(1):199-206). LNCaP express MMP-14 (Endocrinology (2003) 144(5):1656-1663) at a relatively low level. […] MMP-14 is expressed by MDA-MB-231 cells (Int J Cancer. (2005) 114(4):544-554.).\nCells (2×10^5) were cultivated on cell culture slides in complete medium. At confluency, cells were washed with PBS and fixed with 4% paraformaldehyde for 30 minutes at room temperature. Endogenous peroxidases were blocked with 3% hydrogen peroxide for 20 minutes. Nonspecific binding sites were blocked by incubation with 10% heat inactivated human serum 10% normal rabbit serum for 30 minutes at room temperature. Cells were then incubated with biotinylated or non-biotinylated MMP-14 binding proteins at 10 μg/ml for 2 hours at room temperature. […] Binding was detected with the substrate AEC+(25 minutes at room temperature in the dark). […]"}},
  "data": [
    {"molecule": "B1", "values": [
      {"measurement": "MMP-16 (cross-reactivity, class symbol)", "setting": "[1]", "result": "X"},
      {"measurement": "bind to human MMP-14", "setting": "[2]", "result": "bind to human MMP-14"},
      {"measurement": "bind to and inhibit human MMP-14", "setting": "[3]", "result": "bind to and inhibit human MMP-14"},
      {"measurement": "MMP-16 (cross-reactivity, class symbol)", "setting": "[4]; Fab 100 nM", "result": "X"},
      {"measurement": "MMP-16 (cross-reactivity, class symbol)", "setting": "[4]; IgG 100 nM", "result": "X"},
      {"measurement": "MMP-24 (cross-reactivity, class symbol)", "setting": "[5]", "result": "X"},
      {"measurement": "Staining, remark on method", "setting": "[6]", "result": "(only positive in immunocytochemistry, ICC)"}
    ]}
  ]
}
